This passage reports Kd results from PMC11775607 (Nucleic Acids Research, 2025).

As a reminder, the Kd is the free concentration of one partner at which half of the binding sites on the other are occupied at equilibrium, for simple one-to-one binding.

In this assay the target is recombinant WBSCR16-GST fusion protein (mouse, UniProt Q9CYF5 35-461). Put plainly: SPR. Background: SPR reads the build-up and loss of mass on a sensor chip optically.

B1: recombinant MRPP3-His fusion protein (230–583 amino acids of MRPP3) (domain or fragment)
chain: LLLLEDIKKVITPSKKNYNDCIQGALLHQDVNTAWNLYQELLGHDIVPMLETLKAFFDFGKDIKDDNYSNKLLDILSYLRNNQLYPGESFAHSIKTWFESVPGKQWKGQFTTVRKSGQCSGCGKTIESIQLSPEEYECLKGKIMRDVIDGGDQYRKTTPQELKRFENFIKSRPPFDVVIDGLNVAKMFPKVRESQLLLNVVSQLAKRNLRLLVLGRKHMLRRSSQWSRDEMEEVQKQASCFFADDISEDDPFLLYATLHSGNHCRFITRDLMRDHKACLPDAKTQRLFFKWQQGHQLAIVNRFPGSKLTFQRILSYDTVVQTTGDSWHIPYDEDLVERCSCEVPTKWLCLHQKT
Consider B1, for which the Kd is 37 nM.
